This note sets out measurements from patent US20100330100A1.

Test in all cases: whole cell ELISA on immobilized PA103 strain, 50 µg/well IgG
Assay [1] concerns the target PA4710 protein on the cell surface of Pseudomonas aeruginosa PA103 strain (Pseudomonas aeruginosa).
Assay [2] shares this target. The source holds these as a separate data set.
Assay [3] shares this target. This is another data set of the same source.

Read-outs that look alike come from different tables or passages of the source.

Turning to “negative control IgG fraction purified from control rat sera obtained by administering only adjuvant (antibody)”, the absorbance at 450 nm turned out to be 0.244 absorbance in assay [1], 0.092 absorbance in assay [2] and 0.28 absorbance in assay [3].
